Test results reported in patent publication US20150344570A1 (published 2015).

Experiments:
[1] = biological target: T1, FcγRIa extracellular domain with C-terminal His tag (human, UniProt P12314 16-292); assay: SPR (Biacore), antibody captured, FcγR as analyte; binding relative to GpH7-A5/GpH7-B3/GpL16-k0 = 100
T1 construct: extracellular domain; Soluble receptor used as analyte in Biacore; also called FcgRI

[2] = biological target: T2, FcγRIIb extracellular domain with C-terminal His tag (human, UniProt P31994 43-217); assay: as above
T2 construct: extracellular domain; Soluble receptor used as analyte in Biacore; also called FcgRIIb
T2 sequence (looked up): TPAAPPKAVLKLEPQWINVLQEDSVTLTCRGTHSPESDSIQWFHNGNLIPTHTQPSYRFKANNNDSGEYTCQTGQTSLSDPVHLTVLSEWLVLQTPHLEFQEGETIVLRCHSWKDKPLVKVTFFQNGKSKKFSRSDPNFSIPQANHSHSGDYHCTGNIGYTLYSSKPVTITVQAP

[3] = biological target: T3, FcγRIIa H (FcγRIIa type H, His at position 131), extracellular domain with C-terminal His tag (human, UniProt P12318 34-217); assay: SPR (Biacore); He/Con_2aH divided by He/Con_2b (FcγRIIa H against FcγRIIb)
T3 construct: extracellular domain; expressed in FreeStyle293 cells; also called FcgRIIa H; 2aH; not shown: His tag attached to the C terminus
T3 sequence (looked up): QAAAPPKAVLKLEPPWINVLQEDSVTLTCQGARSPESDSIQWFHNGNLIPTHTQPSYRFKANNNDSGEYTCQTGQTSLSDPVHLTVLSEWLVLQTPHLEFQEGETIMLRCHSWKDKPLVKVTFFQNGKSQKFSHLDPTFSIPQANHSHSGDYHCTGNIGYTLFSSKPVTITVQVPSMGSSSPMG

[4] = biological target: T3, FcγRIIa H (FcγRIIa type H, His at …); assay: SPR (Biacore), antibody captured on antigen peptide chip, FcγR as analyte; relative to GpH7-A5/GpH7-B3/GpL16-k0 = 100
[5] = biological target: T4, FcγRIIb, extracellular domain with C-terminal His tag (human, UniProt P31994 43-217); assay: as above
T4 construct: extracellular domain; expressed in FreeStyle293 cells; also called FcgRIIb; 2b; not shown: His tag attached to the C terminus
T4 sequence (looked up): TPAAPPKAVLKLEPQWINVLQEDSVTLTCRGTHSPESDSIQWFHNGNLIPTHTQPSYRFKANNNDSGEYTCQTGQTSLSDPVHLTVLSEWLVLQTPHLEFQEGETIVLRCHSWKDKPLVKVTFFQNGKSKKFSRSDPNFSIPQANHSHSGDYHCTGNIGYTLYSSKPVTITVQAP

T1 sequence (P12314 16-292): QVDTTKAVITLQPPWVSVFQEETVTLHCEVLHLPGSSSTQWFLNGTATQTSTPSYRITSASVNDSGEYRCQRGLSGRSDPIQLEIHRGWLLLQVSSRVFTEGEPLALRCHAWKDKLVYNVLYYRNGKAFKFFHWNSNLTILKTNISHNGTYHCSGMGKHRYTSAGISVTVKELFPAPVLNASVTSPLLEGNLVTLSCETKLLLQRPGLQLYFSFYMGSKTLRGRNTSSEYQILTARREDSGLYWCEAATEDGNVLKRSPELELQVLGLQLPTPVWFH

B1: GpH7-A5/GpH7-B3 variant I332_14T/GpL16-k0 (antibody, human IgG1, kappa)
heavy 1: not shown
heavy 2: not shown
light: DIVMTQSPLSLPVTPGEPASISCQASESLVHSNRNTYLHWYLQKPGQSPQLLIYKVSNRFSGVPDRFSGSGSGTDFTLKISRVEAEDVGVYYCSQNTHVPPTFGQGTKVEIERTVAAPSVFIFPPSDEQLKSGTASVVCLLNNFYPREAKVQWKVDNALQSGNSQESVTEQDSKDSTYSLSSTLTLSKADYEKHKVYACEVTHQGLSSPVTKSFNRGEC
notes: Heterodimerized IgG1, mutation in the GpH7-B3 chain only; also called He Ab
- He/Con_1a [1]: 91.8 control = 100
- He/Con_2b [2]: 106 control = 100

B2: GpH7-A5/GpH7-B3 variant P238_07I/GpL16-k0 (antibody, human IgG1, kappa)
heavy 1: not shown
heavy 2: not shown
light: DIVMTQSPLSLPVTPGEPASISCQASESLVHSNRNTYLHWYLQKPGQSPQLLIYKVSNRFSGVPDRFSGSGSGTDFTLKISRVEAEDVGVYYCSQNTHVPPTFGQGTKVEIERTVAAPSVFIFPPSDEQLKSGTASVVCLLNNFYPREAKVQWKVDNALQSGNSQESVTEQDSKDSTYSLSSTLTLSKADYEKHKVYACEVTHQGLSSPVTKSFNRGEC
notes: Heterodimerized antibody (He Ab): mutation in the GpH7-B3 chain only; also called He Ab
- He_2aH/2b (IIaH/IIb) [3]: 0.72 ratio
- He/Con_2aH (relative binding activity) [4]: 57.6 % of HeCon Ab (= 100)
- He/Con_2b (relative binding activity) [5]: 80 % of HeCon Ab (= 100)

B3: GpH7-A5/GpH7-B3 variant P238_20W/GpL16-k0 (antibody, human IgG1, kappa)
heavy 1: not shown
heavy 2: not shown
light: DIVMTQSPLSLPVTPGEPASISCQASESLVHSNRNTYLHWYLQKPGQSPQLLIYKVSNRFSGVPDRFSGSGSGTDFTLKISRVEAEDVGVYYCSQNTHVPPTFGQGTKVEIERTVAAPSVFIFPPSDEQLKSGTASVVCLLNNFYPREAKVQWKVDNALQSGNSQESVTEQDSKDSTYSLSSTLTLSKADYEKHKVYACEVTHQGLSSPVTKSFNRGEC
notes: as for B2
- He_2aH/2b (IIaH/IIb) [3]: 0.49 ratio
- He/Con_2aH (relative binding activity) [4]: 59.5 % of HeCon Ab (= 100)
- He/Con_2b (relative binding activity) [5]: 123 % of HeCon Ab (= 100)

B4: GpH7-A5/GpH7-B3 variant P238_14T/GpL16-k0 (antibody, human IgG1, kappa)
heavy 1: not shown
heavy 2: not shown
light: DIVMTQSPLSLPVTPGEPASISCQASESLVHSNRNTYLHWYLQKPGQSPQLLIYKVSNRFSGVPDRFSGSGSGTDFTLKISRVEAEDVGVYYCSQNTHVPPTFGQGTKVEIERTVAAPSVFIFPPSDEQLKSGTASVVCLLNNFYPREAKVQWKVDNALQSGNSQESVTEQDSKDSTYSLSSTLTLSKADYEKHKVYACEVTHQGLSSPVTKSFNRGEC
notes: as for B2
- He_2aH/2b (IIaH/IIb) [3]: 0.74 ratio
- He/Con_2aH (relative binding activity) [4]: 37.7 % of HeCon Ab (= 100)
- He/Con_2b (relative binding activity) [5]: 50.7 % of HeCon Ab (= 100)

B5: GpH7-A5/GpH7-B3 variant P331_20W/GpL16-k0 (antibody, human IgG1, kappa)
heavy 1: not shown
heavy 2: not shown
light: DIVMTQSPLSLPVTPGEPASISCQASESLVHSNRNTYLHWYLQKPGQSPQLLIYKVSNRFSGVPDRFSGSGSGTDFTLKISRVEAEDVGVYYCSQNTHVPPTFGQGTKVEIERTVAAPSVFIFPPSDEQLKSGTASVVCLLNNFYPREAKVQWKVDNALQSGNSQESVTEQDSKDSTYSLSSTLTLSKADYEKHKVYACEVTHQGLSSPVTKSFNRGEC
notes: as for B1
- He/Con_1a [1]: 94.5 control = 100
- He/Con_2b [2]: 111 control = 100

B6: GpH7-A5/GpH7-B3 variant P238_19Q/GpL16-k0 (antibody, human IgG1, kappa)
heavy 1: not shown
heavy 2: not shown
light: DIVMTQSPLSLPVTPGEPASISCQASESLVHSNRNTYLHWYLQKPGQSPQLLIYKVSNRFSGVPDRFSGSGSGTDFTLKISRVEAEDVGVYYCSQNTHVPPTFGQGTKVEIERTVAAPSVFIFPPSDEQLKSGTASVVCLLNNFYPREAKVQWKVDNALQSGNSQESVTEQDSKDSTYSLSSTLTLSKADYEKHKVYACEVTHQGLSSPVTKSFNRGEC
notes: as for B2
- He_2aH/2b (IIaH/IIb) [3]: 0.51 ratio
- He/Con_2aH (relative binding activity) [4]: 56.4 % of HeCon Ab (= 100)
- He/Con_2b (relative binding activity) [5]: 110 % of HeCon Ab (= 100)

B7: GpH7-A5/GpH7-B3 variant S239_05P/GpL16-k0 (antibody, human IgG1, kappa)
heavy 1: not shown
heavy 2: not shown
light: DIVMTQSPLSLPVTPGEPASISCQASESLVHSNRNTYLHWYLQKPGQSPQLLIYKVSNRFSGVPDRFSGSGSGTDFTLKISRVEAEDVGVYYCSQNTHVPPTFGQGTKVEIERTVAAPSVFIFPPSDEQLKSGTASVVCLLNNFYPREAKVQWKVDNALQSGNSQESVTEQDSKDSTYSLSSTLTLSKADYEKHKVYACEVTHQGLSSPVTKSFNRGEC
notes: as for B2
- He_2aH/2b (IIaH/IIb) [3]: 0.33 ratio
- He/Con_2aH (relative binding activity) [4]: 33.3 % of HeCon Ab (= 100)
- He/Con_2b (relative binding activity) [5]: 102 % of HeCon Ab (= 100)

B8: GpH7-A5/GpH7-B3 variant P238_18N/GpL16-k0 (antibody, human IgG1, kappa)
heavy 1: not shown
heavy 2: not shown
light: DIVMTQSPLSLPVTPGEPASISCQASESLVHSNRNTYLHWYLQKPGQSPQLLIYKVSNRFSGVPDRFSGSGSGTDFTLKISRVEAEDVGVYYCSQNTHVPPTFGQGTKVEIERTVAAPSVFIFPPSDEQLKSGTASVVCLLNNFYPREAKVQWKVDNALQSGNSQESVTEQDSKDSTYSLSSTLTLSKADYEKHKVYACEVTHQGLSSPVTKSFNRGEC
notes: as for B2
- He_2aH/2b (IIaH/IIb) [3]: 0.73 ratio
- He/Con_2aH (relative binding activity) [4]: 53.5 % of HeCon Ab (= 100)
- He/Con_2b (relative binding activity) [5]: 73.2 % of HeCon Ab (= 100)
